Consider seven molecules from US20220242953A1 (JIANGSU HENGRUI MEDICINE, published 2022).

For assay [1], the target named is T1, human B7H3 on the cell surface (A498, CT26/hB7H3, U87, Detroit562 cells) (human, UniProt Q5ZPR3 29-534).
T1 sequence: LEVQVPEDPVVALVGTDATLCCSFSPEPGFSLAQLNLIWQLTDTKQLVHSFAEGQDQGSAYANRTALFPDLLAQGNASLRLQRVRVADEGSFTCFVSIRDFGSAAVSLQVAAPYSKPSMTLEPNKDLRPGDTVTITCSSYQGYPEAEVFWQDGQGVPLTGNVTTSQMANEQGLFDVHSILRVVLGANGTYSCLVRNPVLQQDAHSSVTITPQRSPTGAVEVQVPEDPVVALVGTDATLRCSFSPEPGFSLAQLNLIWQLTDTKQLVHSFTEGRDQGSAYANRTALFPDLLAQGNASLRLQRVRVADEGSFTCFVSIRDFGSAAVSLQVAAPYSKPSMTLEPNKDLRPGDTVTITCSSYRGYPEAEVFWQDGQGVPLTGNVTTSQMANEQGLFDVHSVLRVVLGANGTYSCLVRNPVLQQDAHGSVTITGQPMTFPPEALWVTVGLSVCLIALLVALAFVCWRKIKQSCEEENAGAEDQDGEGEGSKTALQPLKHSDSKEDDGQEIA
As to the kind of experiment: cell-based or functional assay.

The target of assay [2] is T1, human B7H3 on the cell surface (A498, …). As to the kind of experiment: FACS on A498 cells expressing human B7H3, APC anti-human IgG Fc detection, geometric mean fluorescence. The method, then:
(§1) The ability of bispecific antibodies to bind to cell surface antigens was detected by FACS method.
(§2) FACS buffer (98% PBS, 2% FBS) was added into a 96-well U-shaped bottom plate (corning, 3795) to resuspend the cells, the serially diluted antibodies were added, incubated at 4° C. for 1 hour, and the plate was washed with FACS buffer twice. Then APC anti-human IgG Fc Antibody (biolegend, Cat #409306, dilution at 1:50) was added into each well, incubated at 4° C. for 30 minutes, washed twice, the cells were resuspended in FACS buffer, and finally the fluorescence signal values were read by FACS CantoII (BD).

Assay [3] addresses human CD3 on the cell surface (Jurkat recombinant cells; T cells of PBMC) (human, UniProt P07766 23-207; P04234 22-171). As to the kind of experiment: FACS on Jurkat recombinant cells expressing CD3, APC anti-human IgG Fc detection, geometric mean fluorescence. The method, then:
as §1, §2

In assay [4] the target is T2, Human CD3 antigen for detection (SinoBiological cat #CT038-H2508H); human CD3 epsilon-His and human CD3 … (human, UniProt P07766 23-126; P04234 22-105).
T2 construct: Bought antigen
T2 sequence (P07766 other isoform, or with tags, fused parts or gaps H2508H H2508H, chain 1 of 2): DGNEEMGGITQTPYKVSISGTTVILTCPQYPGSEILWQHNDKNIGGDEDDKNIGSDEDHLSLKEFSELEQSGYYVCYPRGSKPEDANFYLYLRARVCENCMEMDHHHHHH
T2 sequence (P04234 other isoform, or with tags, fused parts or gaps H2508H H2508H, chain 2 of 2): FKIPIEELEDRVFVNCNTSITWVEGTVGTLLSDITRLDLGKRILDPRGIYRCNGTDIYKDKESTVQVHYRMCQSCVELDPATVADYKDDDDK
As to the kind of experiment: Biacore T200 SPR, bispecific antibody captured, antigen as analyte, 1:1 Langmuir fit. As for the experimental part: (§3) The detection of antibody affinity to B7H3 and CD3 was performed in the form of capture antibody. BsAb was captured by CM5 biosensor chip (Cat. #BR-1005-30, GE) or Protein A (Cat. #29127556, GE) biosensor chip coupled with Anti-Human IgG Antibody (Cat. #BR-1008-39, Lot. #10260416, GE), and then each antigen flowed through the surface of the chip. The reaction signals were detected in real time with the Biacore T200 instrument to obtain the binding and dissociation curves. After the dissociation of each experimental cycle was completed, the chip was washed and regenerated with regeneration buffer Glycine1.5 (Cat #BR100354, GE) or 3 M MgCl₂ (from Human antibody capture kit, Cat. #BR100839, GE). The data were fitted with the (1:1) Langmuir model using GE Biacore T200 Evaluation version 3.0 software, and the affinity values were obtained.

Assay [5] has as its target T3, Monkey CD3 antigen for detection (Acro biosystem cat #CDD-C52W4); monkey CD3 epsilon-His and monkey CD3 … (monkey (cyno), UniProt Q95LI5 22-117; Q95LI8 22-105).
T3 construct: Bought antigen
The assay is described as above. The method, then:
as §3

Assay [6] has as its target T4, Human B7H3 antigen for detection (SinoBiological cat #11188-H08H) (human, UniProt Q5ZPR3 29-461).
T4 construct: Bought antigen
T4 sequence: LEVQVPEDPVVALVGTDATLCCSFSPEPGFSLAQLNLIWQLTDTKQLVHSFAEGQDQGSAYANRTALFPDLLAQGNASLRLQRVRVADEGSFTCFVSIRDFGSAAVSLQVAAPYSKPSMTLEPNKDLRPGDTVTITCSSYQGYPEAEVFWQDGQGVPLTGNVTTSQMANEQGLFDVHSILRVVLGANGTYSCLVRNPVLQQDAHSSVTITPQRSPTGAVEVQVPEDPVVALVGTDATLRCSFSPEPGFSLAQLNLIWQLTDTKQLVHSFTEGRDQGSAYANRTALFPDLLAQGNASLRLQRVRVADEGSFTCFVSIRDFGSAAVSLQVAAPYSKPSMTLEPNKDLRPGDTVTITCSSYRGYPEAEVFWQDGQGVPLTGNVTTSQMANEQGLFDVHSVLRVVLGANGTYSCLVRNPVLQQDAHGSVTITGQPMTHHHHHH
The assay is described as above. The method, then:
as §3

Assay [7] deals with T5, Monkey B7H3 antigen for detection (SinoBiological cat #90806-C08H) (monkey (cyno)).
T5 construct: Bought antigen; also called monkey (cyno) B7H3
T5 chain: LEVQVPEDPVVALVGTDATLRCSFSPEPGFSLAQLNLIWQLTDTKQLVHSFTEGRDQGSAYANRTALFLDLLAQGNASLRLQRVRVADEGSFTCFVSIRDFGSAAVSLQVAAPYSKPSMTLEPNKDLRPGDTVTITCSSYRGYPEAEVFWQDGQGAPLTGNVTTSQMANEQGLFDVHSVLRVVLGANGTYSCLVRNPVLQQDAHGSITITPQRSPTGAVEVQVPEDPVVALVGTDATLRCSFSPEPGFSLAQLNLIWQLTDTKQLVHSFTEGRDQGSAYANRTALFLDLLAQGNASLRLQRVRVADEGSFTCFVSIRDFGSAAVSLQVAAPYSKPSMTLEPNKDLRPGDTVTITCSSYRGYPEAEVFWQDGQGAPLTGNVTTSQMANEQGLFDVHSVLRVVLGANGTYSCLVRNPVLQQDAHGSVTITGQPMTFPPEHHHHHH
The description is as above. As for the experimental part:
as §3

For assay [8], the target named is T1, human B7H3 on the cell surface (A498, …). As to the kind of experiment: FACS on CT26/hB7H3 cells over-expressing human B7H3, APC anti-human IgG Fc detection, geometric mean fluorescence. As for the experimental part: as §1, §2
In assay [9] the target is T2, Human CD3 antigen for detection …. Nature of the assay: Biacore T200 SPR, bispecific antibody captured, CD3 antigen as analyte, 1:1 Langmuir fit. The method, then:
as §3

Chain of human CD3 on the cell surface (Jurkat recombinant cells; T cells of PBMC) (P07766 23-207, chain 1 of 2): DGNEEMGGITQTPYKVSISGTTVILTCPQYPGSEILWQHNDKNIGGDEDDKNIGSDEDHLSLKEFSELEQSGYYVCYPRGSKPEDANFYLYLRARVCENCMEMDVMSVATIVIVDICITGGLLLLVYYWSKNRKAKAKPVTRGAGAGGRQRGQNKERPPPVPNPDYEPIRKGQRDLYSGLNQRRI
Chain of human CD3 on the cell surface (Jurkat recombinant cells; T cells of PBMC) (P04234 22-171, chain 2 of 2): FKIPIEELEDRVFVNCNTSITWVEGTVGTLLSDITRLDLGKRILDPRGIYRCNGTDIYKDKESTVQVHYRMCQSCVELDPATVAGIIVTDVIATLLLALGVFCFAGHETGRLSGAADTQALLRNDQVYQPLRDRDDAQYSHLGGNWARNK
T3 sequence (Q95LI5 other isoform, or with tags, fused parts or gaps mutant, chain 1 of 2): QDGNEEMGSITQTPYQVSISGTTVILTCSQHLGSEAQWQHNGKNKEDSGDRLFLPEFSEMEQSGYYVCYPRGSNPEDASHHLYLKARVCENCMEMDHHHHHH
T3 sequence (Q95LI8 other isoform, or with tags, fused parts or gaps mutant, chain 2 of 2): as the sequence (P04234 other isoform, or with tags, fused parts or gaps H2508H H2508H, chain 2 of 2) above, with I5V, N15K, I20V, S32T, D33N, I34N, T64A, S74N, V83L counted along it

B1: NC1 (negative control bispecific antibody; B7H3 binding domain replaced with a non-related antibody, CD3 binding domain retained) (bispecific antibody)
chain 1: not shown
chain 2: DIQMTQSPSSVSASVGDRVTITCRASQDIANYLSWYQQKPGKSPKLLIYGTSNLEVGVPSRFSGSRSGTDFTLTISSLQPEDFATYYCLQDKEFPRTFGGGTKVEIKGGGGSGGGGSGGGGSEVQLVESGGGLVQPGGSLRLSCAASGFTFSHYYMAWVRQAPGKGLEWVTSISYEGDITYYGDSVKGRFTISRDNSKNTLYLQMNSLRAEDTATYYCASQTLRESFDYWGQGTLVTVSSGGGDKTHTCPPCPAPEAAGGPSVFLFPPKPKDTLMISRTPEVTCVVVDVSHEDPEVKFNWYVDGVEVHNAKTKPREEQYNSTYRVVSVLTVLHQDWLNGKEYKCKVSNKALPAPIEKTISKAKGQPREPQVCTLPPSREEMTKNQVSLSCAVKGFYPSDIAVEWESNGQPENNYKTTPPVLDSDGSFFLVSKLTVDKSRWQQGNVFSCSVMHEALHNHYTQKSLSLSPGK
notes: Control arm said to be an anti-fluorescein antibody; CD3 scFv with HRH-3
By EC50 (read off the curve) is commonly meant the concentration at which the effect is half-maximal. As to B1, in assay [1], the “Emax (%), PBMC-mediated killing of A498 cells (B7H3 high)” value came out at 20.9%; the “Emax (%), PBMC-mediated killing of Detroit562 cells (B7H3 low)” value was 0.95%; the “Emax (%), PBMC-mediated killing of U87 cells (B7H3 intermediate)” value came out at 3.8%; the “IC50 (nM), PBMC-mediated killing of A498 cells (B7H3 high)” value was more than 300 nM. In addition, in [1], the “IC50 (nM), PBMC-mediated killing of Detroit562 cells (B7H3 low)” value is more than 300 nM and the “IC50 (nM), PBMC-mediated killing of U87 cells (B7H3 intermediate)” value is more than 300 nM. In addition, the binding result in assay [2] was “no binding (tested: about 5000 nM (log 3.7 on the axis))”. In addition, the “EC50 (read off the curve)” value in assay [3] is approximately 70 nM.

B2: MGD009 (positive control bispecific antibody, three chains) (bispecific antibody)
chain 1: DIQLTQSPSFLSASVGDRVTITCKASQNVDTNVAWYQQKPGKAPKALIYSASYRYSGVPSRFSGSGSGTDFTLTISSLQPEDFATYYCQQYNNYPFTFGQGTKLEIKGGGSGGGGEVQLVESGGGLVQPGGSLRLSCAASGFTFSTYAMNWVRQAPGKGLEWVGRIRSKYNNYATYYADSVKDRFTISRDDSKNSLYLQMNSLKTEDTAVYYCVRHGNFGNSYVSWFAYWGQGTLVTVSSGGCGGGEVAALEKEVAALEKEVAALEKEVAALEKGGGDKTHTCPPCPAPEAAGGPSVFLFPPKPKDTLMISRTPEVTCVVVDVSHEDPEVKFNWYVDGVEVHNAKTKPREEQYNSTYRVVSVLTVLHQDWLNGKEYKCKVSNKALPAPIEKTISKAKGQPREPQVYTLPPSREEMTKNQVSLWCLVKGFYPSDIAVEWESNGQPENNYKTTPPVLDSDGSFFLYSKLTVDKSRWQQGNVFSCSVMHEALHNHYTQKSLSLSPGK
chain 2: QAVVTQEPSLTVSPGGTVTLTCRSSTGAVTTSNYANWVQQKPGQAPRGLIGGTNKRAPWTPARFSGSLLGGKAALTITGAQAEDEADYYCALWYSNLWVFGGGTKLTVLGGGGSGGGGEVQLVESGGGLVQPGGSLRLSCAASGFTFSSFGMHWVRQAPGKGLEWVAYISSDSSAIYYADTVKGRFTISRDNAKNSLYLQMNSLRDEDTAVYYCGRGRENIYYGSRLDYWGQGTTVTVSSGGCGGGKVAALKEKVAALKEKVAALKEKVAALKE
chain 3: not shown
notes: B7H3 monovalent B7H3xCD3 DART-Fc
Broadly, the Kd is the constant that tells how readily two partners part at equilibrium. Take B2: the Kd was 78.1 nM in assay [4], 4.94 nM in [5], 1.96 nM in assay [6] and 2.65 nM in assay [7]. Moreover, the “EC50 (read off the curve)” value in [3] is approximately 100 nM; in [8], approximately 10 nM.

B3: bispecific antibody 113 (AFF 3-2) (bispecific antibody)
chain 1: not shown
chain 2: QTVVTQEPSFSVSPGGTVTLTCGLSSGSVSTSHYPSWYQQTPGQAPRMLIYNTNTRSSGVPDRFSGSILGNKAALTITGAQADDESDYYCAIHVDRDIWVFGGGTKLTVLGGGGSGGGGSGGGGSQVQLVQSGGGVVQPGTSLRLSCAASGFIFSSSAMHWVRQAPGKGLEWVAVISYDGSNKYYVDSVKGRFTISRDNSKNTLYLQMNSLRAEDTAVYYCARSARLYASFDYWGQGALVTVSSGGGDKTHTCPPCPAPEAAGGPSVFLFPPKPKDTLMISRTPEVTCVVVDVSHEDPEVKFNWYVDGVEVHNAKTKPREEQYNSTYRVVSVLTVLHQDWLNGKEYKCKVSNKALPAPIEKTISKAKGQPREPQVCTLPPSREEMTKNQVSLSCAVKGFYPSDIAVEWESNGQPENNYKTTPPVLDSDGSFFLVSKLTVDKSRWQQGNVFSCSVMHEALHNHYTQKSLSLSPGK
notes: B7H3 bivalent CD3-B7H3 bispecific antibody, CD3 VH HRH-2
In assay [9], B3 registered a Kd of 77.2 nM.

B4: NC2 (negative control bispecific antibody; B7H3 binding domain retained, CD3 binding domain replaced with a non-related antibody) (bispecific antibody)
chain 1: not shown
chain 2: B3 chain 2
notes: Control arm said to be anti-fluorescein
For B4, the “EC50 (read off the curve)” value in assay [2] is approximately 30 nM; in assay [8] it was approximately 4 nM. In [3], the binding result is reported as “no binding (tested: about 8000 nM (log 3.9 on the axis))”.

B5: bispecific antibody 177 (AFF3-7) (bispecific antibody)
chain 1: not shown
chain 2: B3 chain 2
notes: B7H3 bivalent CD3-B7H3 bispecific antibody, CD3 VH HRH-7
Take B5: in assay [9], the Kd amounted to 162 nM.

B6: bispecific antibody 154 (AFF3-4) (bispecific antibody)
chain 1: not shown
chain 2: B3 chain 2
notes: B7H3 bivalent CD3-B7H3 bispecific antibody, CD3 VH HRH-4
In the case of B6, in [9], the Kd was 69.7 nM.

B7: bispecific antibody 131 (AFF3-1) (bispecific antibody)
chain 1: not shown
chain 2: B3 chain 2
notes: B7H3 bivalent CD3-B7H3 bispecific antibody, CD3 VH HRH-1; two-chain knob/hole Fc format
As to B7, in assay [9], the Kd came out at 40.7 nM.
